Experimental findings from article PMC2432501, “Binding to the Minor Groove of the Double-Strand, Tau Protein Prevents DNA from Damage by Peroxidation” are described below.

Data set [1] deals with T1, tau23 (human, UniProt P10636-2 1-352). Put plainly: EMSA; marked shift from [protein]/[DNA] 1/2; 2.5 uM DNA; 20 mM Tris pH 7.2, 50 mM NaCl, 0.5 mM DTT, 1 mM MgCl2, 0.5 mM EDTA, room temperature 20-30 min; native PAGE in 1xTBE (20% gel at 4 C, or 8% for the 26 bp assay). To be noted: protein: recombinant; blunt. On the technique in general: In EMSA bound probe runs differently from free probe, usually more slowly.
T1 sequence (P10636 other isoform, or with tags, fused parts or gaps): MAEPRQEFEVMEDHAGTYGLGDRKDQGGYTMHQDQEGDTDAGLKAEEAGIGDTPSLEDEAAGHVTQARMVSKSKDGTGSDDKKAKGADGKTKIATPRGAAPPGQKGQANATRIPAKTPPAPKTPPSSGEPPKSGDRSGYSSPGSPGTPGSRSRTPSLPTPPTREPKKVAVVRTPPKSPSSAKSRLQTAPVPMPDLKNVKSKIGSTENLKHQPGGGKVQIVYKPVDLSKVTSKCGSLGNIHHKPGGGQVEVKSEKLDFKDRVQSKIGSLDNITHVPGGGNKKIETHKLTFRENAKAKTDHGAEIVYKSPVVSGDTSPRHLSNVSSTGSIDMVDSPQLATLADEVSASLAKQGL

Data set [2] concerns the target T1, tau23. In words: AFM; protein/DNA 8/1; particle 8.54 nm vs 7.82 nm tau alone; 20 mM Tris pH 7.2, 50 mM NaCl, 0.5 mM DTT, 1 mM MgCl2, 0.5 mM EDTA, room temperature 20-30 min; native PAGE in 1xTBE (20% gel at 4 C, or 8% for the 26 bp assay). To be noted: protein: recombinant; 5' overhang 1 nt at both ends.
Data set [3] concerns the target T1, tau23. Put plainly: EMSA; retardation depends on tau/DNA ratio; 20 mM Tris pH 7.2, 50 mM NaCl, 0.5 mM DTT, 1 mM MgCl2, 0.5 mM EDTA, room temperature 20-30 min; native PAGE in 1xTBE (20% gel at 4 C, or 8% for the 26 bp assay). To be noted: protein: recombinant; 5' overhang 1 nt at both ends.
Data set [4] addresses T1, tau23. In words: EMSA; 20 mM Tris pH 7.2, 50 mM NaCl, 0.5 mM DTT, 1 mM MgCl2, 0.5 mM EDTA, room temperature 20-30 min; native PAGE in 1xTBE (20% gel at 4 C, or 8% for the 26 bp assay). Particulars: protein: recombinant; 5' overhang 1 nt at both ends.
Data set [5] has as its target T1, tau23. In words: EMSA; shift from [tau]/[bp] 1/100, greatest at 1/3; 20 mM Tris pH 7.2, 50 mM NaCl, 0.5 mM DTT, 1 mM MgCl2, 0.5 mM EDTA, room temperature 20-30 min; native PAGE in 1xTBE (20% gel at 4 C, or 8% for the 26 bp assay). To be noted: protein: recombinant; 5' overhang 1 nt at both ends.

B1: 20 bp DNA (dsDNA)
DNA 1: AACGAGAAGCGCGATCACAT
DNA 2: ATGTGATCGCGCTTCTCGTT
On to B1, for which, in data set [1], the binding result is reported as “binds”.

B2: 12 bp DNA (dsDNA)
DNA 1: AGTGCATAAATAA
DNA 2: CTTATTTATGCAC
As to B2, in data set [2], the binding result was “no binding”.

B3: 14 bp DNA (dsDNA)
DNA 1: ACCGTGCATAAATAA
DNA 2: CTTATTTATGCACGG
Regarding B3, the binding result in data set [3] is “binds”.

B4: 13 bp DNA (dsDNA)
DNA 1: ACGTGCATAAATAA
DNA 2: CTTATTTATGCACG
As to B4, the binding result in data set [4] is listed as “binds”.

B5: 26 bp DNA (dsDNA)
DNA 1: ACTCCGTGCATAAATAATAGGCACTCG
DNA 2: CCGAGTGCCTATTATTTATGCACGGAG
For B5, in data set [5], the binding result was “binds”.
